From article PMC3932107 come the findings set out here.

By stoichiometry N is commonly meant the number of molecules, sites or subunits per partner or assembly. In general, Kd refers to a measure of binding affinity in units of concentration. Read a low Kd as higher affinity.

The target of assay [1] is Alexa488-labeled γ-synuclein (human) (UniProt O76070). In words: photon counting histogram.
For assay [2], the target named is CPM-labeled γ-synuclein (human) (UniProt O76070). In words: other fluorescence titration.

Regarding “Alexa488-labeled γ-synuclein (from UniProt O76070 1-127) (natural protein)”, the stoichiometry N in assay [1] was found to be 20.

Regarding “γ-synuclein, purified from E. coli, unlabelled (from UniProt O76070 1-127) (natural protein)”, the Kd in assay [2] stood at 5 nM.
